Laboratory results published in paper PMC5490006 (Nature Communications, 2017).

T1: Mcm2 (budding yeast, UniProt P29469 1-868)
T1 construct: Mcm2, subunit of the budding yeast MCM (Mcm2-7), expressed as an individual subunit; source: E. coli, purified
T1 sequence (looked up): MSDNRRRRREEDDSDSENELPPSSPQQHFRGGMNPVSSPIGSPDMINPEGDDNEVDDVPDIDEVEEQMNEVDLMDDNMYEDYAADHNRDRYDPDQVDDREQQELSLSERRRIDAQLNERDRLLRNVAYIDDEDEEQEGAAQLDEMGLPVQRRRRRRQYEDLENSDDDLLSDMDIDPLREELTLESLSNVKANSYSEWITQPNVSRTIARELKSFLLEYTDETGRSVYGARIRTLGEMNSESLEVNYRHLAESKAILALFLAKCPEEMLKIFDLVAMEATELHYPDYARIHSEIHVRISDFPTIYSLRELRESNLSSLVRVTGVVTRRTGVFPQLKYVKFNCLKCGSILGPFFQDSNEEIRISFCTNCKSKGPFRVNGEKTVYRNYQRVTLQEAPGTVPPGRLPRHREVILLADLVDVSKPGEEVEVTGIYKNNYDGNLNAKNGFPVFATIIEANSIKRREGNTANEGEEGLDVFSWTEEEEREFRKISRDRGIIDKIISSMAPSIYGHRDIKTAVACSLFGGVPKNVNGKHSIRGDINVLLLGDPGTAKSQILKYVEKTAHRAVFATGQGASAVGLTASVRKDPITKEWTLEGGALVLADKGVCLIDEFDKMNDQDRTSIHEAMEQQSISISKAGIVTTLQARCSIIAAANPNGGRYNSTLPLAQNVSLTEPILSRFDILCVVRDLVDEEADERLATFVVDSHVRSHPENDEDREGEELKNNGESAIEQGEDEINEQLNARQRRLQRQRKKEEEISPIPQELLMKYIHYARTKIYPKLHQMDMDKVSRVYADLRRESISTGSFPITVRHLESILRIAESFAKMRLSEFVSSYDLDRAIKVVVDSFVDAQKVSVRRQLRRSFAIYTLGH

T2: Mcm4 (budding yeast, UniProt P30665 1-933)
T2 construct: Mcm4, subunit of the budding yeast MCM (Mcm2-7), expressed as an individual subunit; source: E. coli, purified
T2 sequence (looked up): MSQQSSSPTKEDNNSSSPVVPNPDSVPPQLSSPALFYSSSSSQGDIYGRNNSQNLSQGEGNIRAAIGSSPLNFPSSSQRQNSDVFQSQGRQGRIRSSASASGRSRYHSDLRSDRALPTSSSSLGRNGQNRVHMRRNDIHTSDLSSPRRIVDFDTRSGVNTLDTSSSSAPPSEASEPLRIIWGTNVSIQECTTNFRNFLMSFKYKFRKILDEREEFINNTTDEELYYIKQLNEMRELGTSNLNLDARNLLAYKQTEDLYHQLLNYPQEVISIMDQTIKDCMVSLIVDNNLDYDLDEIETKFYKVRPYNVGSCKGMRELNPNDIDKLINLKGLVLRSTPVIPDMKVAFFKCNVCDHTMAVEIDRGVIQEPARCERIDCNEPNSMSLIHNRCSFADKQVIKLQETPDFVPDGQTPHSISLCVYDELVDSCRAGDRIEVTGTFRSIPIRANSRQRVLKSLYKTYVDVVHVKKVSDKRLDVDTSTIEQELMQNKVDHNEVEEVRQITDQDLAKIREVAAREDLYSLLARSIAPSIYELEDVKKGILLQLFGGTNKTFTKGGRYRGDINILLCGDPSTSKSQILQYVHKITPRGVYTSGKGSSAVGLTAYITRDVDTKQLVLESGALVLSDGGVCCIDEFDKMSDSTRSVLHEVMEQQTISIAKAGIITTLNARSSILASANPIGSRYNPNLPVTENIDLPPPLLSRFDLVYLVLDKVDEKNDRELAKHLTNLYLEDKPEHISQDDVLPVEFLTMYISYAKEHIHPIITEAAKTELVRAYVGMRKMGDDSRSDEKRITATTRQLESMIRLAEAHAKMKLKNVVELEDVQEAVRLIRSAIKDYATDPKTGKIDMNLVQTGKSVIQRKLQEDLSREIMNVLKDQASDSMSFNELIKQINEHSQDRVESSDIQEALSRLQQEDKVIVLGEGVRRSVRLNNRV

B1: Cdt1 (natural protein, S. cerevisiae, UniProt P47112 1-604, looked up)
chain: MSGTANSRRKEVLRVPVIDLNRVSDEEQLLPVVRAILLQHDTFLLKNYANKAVLDALLAGLTTKDLPDTSQGFDANFTGTLPLEDDVWLEQYIFDTDPQLRFDRKCRNESLCSIYSRLFKLGLFFAQLCVKSVVSSAELQDCISTSHYATKLTRYFNDNGSTHDGADAGATVLPTGDDFQYLFERDYVTFLPTGVLTIFPCAKAIRYKPSTMATTDNSWVSIDEPDCLLFHTGTLLARWSQGMHTTSPLQIDPRANIVSLTIWPPLTTPISSKGEGTIANHLLEQQIKAFPKVAQQYYPRELSILRLQDAMKFVKELFTVCETVLSLNALSRSTGVPPELHVLLPQISSMMKRKIVQDDILKLLTIWSDAYVVELNSRGELTMNLPKRDNLTTLTNKSRTLAFVERAESWYQQVIASKDEIMTDVPAFKINKRRSSSNSKTVLSSKVQTKSSNANALNNSRYLANSKENFMYKEKMPDSQANLMDRLRERERRSAALLSQRQKRYQQFLAMKMTQVFDILFSLTRGQPYTETYLSSLIVDSLQDSNNPIGTKEASEILAGLQGILPMDISVHQVDGGLKVYRWNSLDKNRFSKLLQIHKSKQQD
notes: Cdt1, S. cerevisiae; also called Cdt1 WT; wild-type Cdt1; source: recombinant, purified
B2: Cdt1-MC fused to His-SUMO (domain or fragment, S. cerevisiae, UniProt P47112 272-604, looked up)
chain: SKGEGTIANHLLEQQIKAFPKVAQQYYPRELSILRLQDAMKFVKELFTVCETVLSLNALSRSTGVPPELHVLLPQISSMMKRKIVQDDILKLLTIWSDAYVVELNSRGELTMNLPKRDNLTTLTNKSRTLAFVERAESWYQQVIASKDEIMTDVPAFKINKRRSSSNSKTVLSSKVQTKSSNANALNNSRYLANSKENFMYKEKMPDSQANLMDRLRERERRSAALLSQRQKRYQQFLAMKMTQVFDILFSLTRGQPYTETYLSSLIVDSLQDSNNPIGTKEASEILAGLQGILPMDISVHQVDGGLKVYRWNSLDKNRFSKLLQIHKSKQQD
notes: source: His-SUMO fusion
B3: Cdt1 fragment 271–496 fused to His-SUMO (domain or fragment, S. cerevisiae, UniProt P47112 271-496, looked up)
chain: SSKGEGTIANHLLEQQIKAFPKVAQQYYPRELSILRLQDAMKFVKELFTVCETVLSLNALSRSTGVPPELHVLLPQISSMMKRKIVQDDILKLLTIWSDAYVVELNSRGELTMNLPKRDNLTTLTNKSRTLAFVERAESWYQQVIASKDEIMTDVPAFKINKRRSSSNSKTVLSSKVQTKSSNANALNNSRYLANSKENFMYKEKMPDSQANLMDRLRERERRSAA
notes: source: His-SUMO fusion
B4: Cdt1 fragment 495–604 fused to His-SUMO (domain or fragment, S. cerevisiae, UniProt P47112 495-604, looked up)
chain: AALLSQRQKRYQQFLAMKMTQVFDILFSLTRGQPYTETYLSSLIVDSLQDSNNPIGTKEASEILAGLQGILPMDISVHQVDGGLKVYRWNSLDKNRFSKLLQIHKSKQQD
notes: assigned by the order of description; The crystallised protein had the tag removed; also called CTD; source: His-SUMO fusion; E. coli is told for the crystallised fragment of the same limits
B5: Mcm7 (natural protein, budding yeast, UniProt P38132 1-845, looked up)
chain: MSAALPSIQLPVDYNNLFNEITDFLVTFKQDTLSSDATRNENEDENLDAENIEQHLLEKGPKYMAMLQKVANRELNSVIIDLDDILQYQNEKFLQGTQADDLVSAIQQNANHFTELFCRAIDNNMPLPTKEIDYKDDVLDVILNQRRLRNERMLSDRTNEIRSENLMDTTMDPPSSMNDALREVVEDETELFPPNLTRRYFLYFKPLSQNCARRYRKKAISSKPLSVRQIKGDFLGQLITVRGIITRVSDVKPAVEVIAYTCDQCGYEVFQEVNSRTFTPLSECTSEECSQNQTKGQLFMSTRASKFSAFQECKIQELSQQVPVGHIPRSLNIHVNGTLVRSLSPGDIVDVTGIFLPAPYTGFKALKAGLLTETYLEAQFVRQHKKKFASFSLTSDVEERVMELITSGDVYNRLAKSIAPEIYGNLDVKKALLLLLVGGVDKRVGDGMKIRGDINVCLMGDPGVAKSQLLKAICKISPRGVYTTGKGSSGVGLTAAVMKDPVTDEMILEGGALVLADNGICCIDEFDKMDESDRTAIHEVMEQQTISISKAGINTTLNARTSILAAANPLYGRYNPRLSPLDNINLPAALLSRFDILFLMLDIPSRDDDEKLAEHVTYVHMHNKQPDLDFTPVEPSKMREYIAYAKTKRPVMSEAVNDYVVQAYIRLRQDSKREMDSKFSFGQATPRTLLGIIRLSQALAKLRLADMVDIDDVEEALRLVRVSKESLYQETNKSKEDESPTTKIFTIIKKMLQETGKNTLSYENIVKTVRLRGFTMLQLSNCIQEYSYLNVWHLINEGNTLKFVDDGTMDTDQEDSLVSTPKLAPQTTASANVSAQDSDIDLQDA
notes: Mcm7, subunit of the budding yeast MCM (Mcm2-7), expressed as an individual subunit; source: E. coli, purified
B6: Cdt1 within purified Cdt1–MCM complexes (natural protein, S. cerevisiae, UniProt P47112 1-604, looked up)
chain: B1 chain
notes: also called Cdt1 (in MCM-GFP,FLAG–Cdt1 complexes and in the Cdt1–MCM complex used for electron microscopy); source: purified Cdt1-MCM complex

Legend:
Details in all cases: both partners purified
Mcm6 [1] = target: T3, Mcm6 (budding yeast, UniProt P53091 1-1017); test: co-IP; purified Mcm2-7 subunits (0.5 μM) individually incubated with purified Cdt1 (0.5 μM) or buffer, room temperature 60 min, buffer A/2 mM 2-mercaptoethanol; immunoprecipitation with polyclonal anti-Cdt1 antibody on protein A sepharose, 2 h at 4 °C; SDS-PAGE, Coomassie
T3 construct: Mcm6, subunit of the budding yeast MCM (Mcm2-7), expressed as an individual subunit; called Mcm6 fl and the full-length protein; also called Mcm6 fl; full-length Mcm6; source: E. coli, purified
T3 sequence (P53091 whole entry): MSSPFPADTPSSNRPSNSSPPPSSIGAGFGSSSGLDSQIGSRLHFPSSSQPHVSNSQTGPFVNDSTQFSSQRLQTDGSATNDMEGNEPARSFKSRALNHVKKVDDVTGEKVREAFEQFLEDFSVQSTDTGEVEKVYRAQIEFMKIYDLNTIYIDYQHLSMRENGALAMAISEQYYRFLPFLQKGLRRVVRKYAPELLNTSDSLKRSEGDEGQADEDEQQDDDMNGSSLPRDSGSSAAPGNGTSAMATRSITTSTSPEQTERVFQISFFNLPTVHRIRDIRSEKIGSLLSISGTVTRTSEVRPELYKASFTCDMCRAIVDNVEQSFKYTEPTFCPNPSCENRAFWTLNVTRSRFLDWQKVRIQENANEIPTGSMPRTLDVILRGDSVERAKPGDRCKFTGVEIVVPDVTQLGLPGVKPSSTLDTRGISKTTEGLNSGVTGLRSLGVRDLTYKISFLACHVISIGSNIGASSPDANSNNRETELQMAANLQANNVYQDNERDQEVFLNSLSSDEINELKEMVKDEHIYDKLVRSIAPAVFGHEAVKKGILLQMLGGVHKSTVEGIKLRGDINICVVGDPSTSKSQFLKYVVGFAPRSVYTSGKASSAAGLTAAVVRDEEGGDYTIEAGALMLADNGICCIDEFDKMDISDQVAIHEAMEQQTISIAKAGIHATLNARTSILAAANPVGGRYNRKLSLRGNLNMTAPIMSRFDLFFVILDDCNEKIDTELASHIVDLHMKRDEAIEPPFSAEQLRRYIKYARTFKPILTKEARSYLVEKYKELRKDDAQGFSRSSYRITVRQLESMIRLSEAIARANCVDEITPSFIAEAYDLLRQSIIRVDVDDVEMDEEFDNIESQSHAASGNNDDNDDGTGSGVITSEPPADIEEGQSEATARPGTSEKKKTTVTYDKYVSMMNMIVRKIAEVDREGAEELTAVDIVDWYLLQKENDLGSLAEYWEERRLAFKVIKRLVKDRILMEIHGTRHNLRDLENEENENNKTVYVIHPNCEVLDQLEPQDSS

Mcm2 = target: T1, Mcm2; test: pull-down; Cdt1-His-SUMO fragments held on Ni-NTA magnetic beads, Mcm2 or Mcm6 in solution; 10 μg of each protein, buffer B (25 mM Hepes-KOH pH 7.6, 0.02% NP-40, 10% glycerol, 0.1 M K glutamate), 60 min at 4 °C; Coomassie
Mcm6 [2] = target: T3, Mcm6; test: as above
Mcm4 = target: T2, Mcm4; test: SEC; 10 μg of each Mcm subunit combined as pairs 3/7, 4/7 and 2/6, dialysed against buffer A, fractionated over Superdex 200 PC 3.2/30 in buffer A; fractions with the dimers pooled
Mcm3 = target: T4, Mcm3 (budding yeast, UniProt P24279 1-971); test: as above
T4 construct: Mcm3, subunit of the budding yeast MCM (Mcm2-7), expressed as an individual subunit; source: E. coli, purified
T4 sequence (P24279 whole entry): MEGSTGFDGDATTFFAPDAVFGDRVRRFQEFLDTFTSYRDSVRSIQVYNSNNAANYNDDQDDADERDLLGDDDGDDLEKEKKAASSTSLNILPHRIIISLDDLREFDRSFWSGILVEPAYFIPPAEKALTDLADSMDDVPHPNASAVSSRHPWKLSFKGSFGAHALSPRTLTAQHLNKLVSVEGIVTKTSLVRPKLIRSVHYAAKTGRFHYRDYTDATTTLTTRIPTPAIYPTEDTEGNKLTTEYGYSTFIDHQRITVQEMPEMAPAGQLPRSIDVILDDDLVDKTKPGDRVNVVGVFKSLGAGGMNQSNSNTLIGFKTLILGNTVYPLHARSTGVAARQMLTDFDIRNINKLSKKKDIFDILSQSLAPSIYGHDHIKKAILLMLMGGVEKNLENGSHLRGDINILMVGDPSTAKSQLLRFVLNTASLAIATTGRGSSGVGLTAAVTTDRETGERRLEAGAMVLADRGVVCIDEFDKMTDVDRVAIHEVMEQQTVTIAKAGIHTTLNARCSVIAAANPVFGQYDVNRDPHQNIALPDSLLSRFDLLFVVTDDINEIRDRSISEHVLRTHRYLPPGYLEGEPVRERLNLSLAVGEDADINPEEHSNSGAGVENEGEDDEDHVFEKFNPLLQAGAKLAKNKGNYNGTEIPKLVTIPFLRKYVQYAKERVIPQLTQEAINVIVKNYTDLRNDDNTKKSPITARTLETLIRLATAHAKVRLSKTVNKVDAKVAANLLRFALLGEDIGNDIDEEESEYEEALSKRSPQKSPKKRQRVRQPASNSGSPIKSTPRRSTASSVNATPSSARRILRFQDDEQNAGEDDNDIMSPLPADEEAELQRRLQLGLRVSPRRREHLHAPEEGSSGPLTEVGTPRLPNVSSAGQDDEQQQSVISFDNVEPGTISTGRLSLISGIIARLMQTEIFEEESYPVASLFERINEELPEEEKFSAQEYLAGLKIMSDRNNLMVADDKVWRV

[3] = target: T5, Mcm6 within purified Cdt1–MCM complexes (budding yeast, UniProt P53091 1-1017); test: negative-stain electron microscopy; single-particle EM of the Cdt1-MCM complex, apo and with ATPγS, 2% uranyl formate; 3D reconstruction (20.4 and 18.0 Å) with docking of MCM atomic structures and of the Cdt1 NM crystal structure
T5 construct: Mcm6, yeast MCM subunit, as part of the Cdt1-MCM complex; source: purified Cdt1-MCM complex
T5 sequence (P53091 whole entry, one chain of several): as the sequence (P53091 whole entry) above

[4] = target: T6, Mcm6 tagged with GFP-FLAG, within an MCM-GFP,FLAG–Cdt1 complex (budding yeast, UniProt P53091 1-1017); test: cross-linking; MCM-GFP,FLAG-Cdt1 complexes (20 μg) crosslinked with 25 μM BS3, 30 min room temperature, buffer B; denatured with SDS; immunoprecipitation with anti-FLAG beads under denaturing conditions; western blot against Cdt1
T6 construct: Mcm6, budding yeast MCM subunit; also called Mcm6-GFP-FLAG; source: purified MCM-GFP,FLAG-Cdt1 complex; not shown: GFP, C-terminal, kept; FLAG, C-terminal, kept
T6 sequence (P53091 whole entry, one chain of several): as the sequence (P53091 whole entry) above

Row | binding result (Mcm2) | binding result (Mcm6 [2]) | further results | Binder
1 | – | – | binding result (Mcm6 [1]): binds | B1
2 | binds | binds | – | B2
3 | binds | binds | – | B3
4 | binds | binds | – | B4
5 | – | – | binding result (Mcm4): binds; binding result (Mcm3): binds | B5
6 | – | – | binding result [3]: binds; binding result [4]: binds | B6
